According to the nanobody polyreactivity screen of Harvey et al. (2022):

Experiment: yeast display, Sf9 membrane polyspecificity reagent, FACS + sequencing; frameworks hold sequencing errors
Procedure, shortened: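 Galactose induction of a Saccharomyces cerevisiae BJ5465 synthetic nanobody display library ran 36–48 hours. The cells were then stained for 1 hour at 4 °C with 10% biotinylated, detergent-solubilized Sf9 membrane reagent, pulled down on streptavidin microbeads and FACS-sorted into low and high (top ~1%) gates on expression and reagent-binding fluorescence. Labels for polyreactivity follow the gate of origin.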

Sequence | polyreactivity (PSR sort gate)
QVQLIESGGGLDQAGGSLRLSCAASGFIFWEYAMGWYRQAPGKERELVAGISTSGGSTYYADSVKGLFTISRDNAKNTVYLQMNSLKPEDTAVYYCAVEGWDDTYFRQDMDYWGQGTQVTVSS | low polyreactivity
QDQHVESGGGLVQAGGTLRISCAASGFTFYVYAMGWYRQAPGKEMELVASISKSGGSTYYADSVKGRFTITRDNAKNTVFLQMNSLKTVDTAVYYCAVYDKRSCYRGGHRYNSCGQGTQVTVSS | high polyreactivity
QVQLVESGGGLVQAGGSLRLSCAASGFIFDNYAMGWYRQAPGKERELVAAISRSGGSTYYADSVKGRFTISRDNAKNTVYLQMNSLKPEDTAVYYCATSGPRGWSLHDYWGQGTQVTVSS | high polyreactivity
QVQIVESGGGLVQAGGSLRLSCAASGITFLWNVMGWYRQAPGKERELVATITSIGGITNYADSVKGRFTISRDNAKNSVYLQMNSLKTEDSAFYYCATQIVSGSRVDRNDYWGQGTQVTVSS | low polyreactivity
QVQLVESGGGLVQAGGSLRLSCAASGSIFVGNAMGWYRQAPGKERELVAAISWGGARTYYADSVKGRFTISRDNAKNTVYLQMNSLKQEDTAVYYCAAGSSSRSTTHYYYWGQGTQVTVSS | high polyreactivity
QVQLVESGGGLVQAGGSLRLSCAASGRTSGFNTMGWYRQAPGKERELVAAISFSGGSTYYADSVKGRFTISRDYSKNTVYLQMNSLKPEDTAVYYCTALYRYLYRSGDYWGQGTQVTVSS | low polyreactivity
QVQLVESGGGLVQAGGSLRLSCAASGFTFDFYAMGWYRQAPGKERELVAAISKNDGTTYYADSVKGRFTISRDNAKNTVYLQMYSLKPVDTAVYYCAAESGYPVYTYVSSGDYWGQGTQVTVSS | low polyreactivity
QVQLVESGGGLVQAGGSLRLSCAASGSILYPNAMGLYRQAPGKERELVAAISSSGGSTYYADSVKGRFTISRDNAKNTVYLQMNSLKPEDTAVYYCAADHYIPIYSKYDYWGQVTQVTVSS | high polyreactivity
QVQLVESGGGLVQAGGSLRLSCAASGSTFYAYAMGWYRQAPGKERELVAVITSSGSTYYADSVKGRFTISRDNAKNTVYLQMNSLKPEDTAVYYCAAKRLSQSRRTQFRTRYPPMYYWGQGTQVTVSS | high polyreactivity
QVQLVESGGGLVQAGGSLRLSWAASGRIFASYAMGWYRQATGKERELVAAISGSGGSTYYADSVKGRFTMSRDNAKKTVYLQLNSLKPEDTAVYYCAARYRSYWYRYVGYDYWGQGTQVNVSS | high polyreactivity
QVQLVESWGGLVQAGGSLRLSCAASGIIFQNYDMGWYRQARGKERELVAAITGSGGSTYYADSVKGRFTISRDNAKNTVYLQMNSLKPEDTAVYYCNAVWEYYGKSDYWGQGTQVTVSS | low polyreactivity
QVQLVESVGGLVQAGGSLRLSCAASGSIIYHYPMGWYRHAPGKEAELVAAIYTTAGDTYYADSVKGRFTISRDNAKNTVYLQMNCLKPEDTAVYYCNASSSYFYYVRYDHWGQGTQVTVSS | low polyreactivity
QVQLVESGGGLVQAGGSLSLICAASGYTLKYYAMGWYRQAPGKERELVAVISRGGSTYYADSVKGRFTISRDNAKNTVYLQMNSLNPEDTAVYYCAKRPTQGYYPYGYWGQGTQVTVSS | high polyreactivity
QVQLVESGGGLVQAGGSLRISCAASGFTFYRYAMGWSIPAPGKERELVAAISSHGDSTYYADSVKGRFTISRDNAKNTVYLQMNSLKPEDTAVYYCNVETLYGYFLHFYLRYYHWGQGTQVTVSS | high polyreactivity
QVQLVESGGGLVQAGGSLRLSCAASGSFLVYYAMGWYRQAPGKERELVAAISWRGDSTSYADSVKGRFTISRDNAKNTVYLQMNSLKPEETAVYYCATAHDYAFYRYWYVPSEYNYWGQGTQVTVSS | low polyreactivity
QVQLVESGGGLVQAGGSLRLSCAASGSTFYLNVMGWYRQAPGKERELVAAISSSGGSTYYADSVKGRFTISRDNAKNTVYLQMNSLKPEDTAVYYCNKVSAFPHYSGYDYWGQGTQVTVSS | low polyreactivity
QVQLVESGGGLVQAGGSLRLSCAASGSNIERNAMGWYIQAPGKERELVANITWSGVSTYYADSVKGRFTISRDNAKNTVYLQMNSLKPEDTAVYYCNADYSYRHWYDPGQYGQAMGYWGQGTQVTVSS | low polyreactivity
